What was measured:
[1] = CHX chase, western blot of remaining protein, HEK293; details: glycan lost; control: wild type TIM-4, no TM
[2] = anti-Flag IP, ubiquitin blot, MG132, A549-LV-TIM-4-Flag; details: glycan lost; control: no TM
[3] = anti-HA IP, ubiquitin blot, MG132, A549; details: glycan lost; control: wild type TIM-4
[4] = confocal immunofluorescence, mCherry-Sec61b ER marker, A549; details: glycan lost; control: wild type TIM-4

Row | Protein | degradation_or_half_life [1] | other: ubiquitination [2] | other: ubiquitination [3] | localisation_or_trafficking [4]
1 | TIM-4: TM (protein) parent chain: MSKEPLILWLMIEFWWLYLTPVTSETVVTEVLGHRVTLPCLYSSWSHNSNSMCWGKDQCPYSGCKEALIRTDGMRVTSRKSAKYRLQGTIPRGDVSLTILNPSESDSGVYCCRIEVPGWFNDVKINVRLNLQRASTTTHRTATTTTRRTTTTSPTTTRQMTTTPAALPTTVVTTPDLTTGTPLQMTTIAVFTTANTCLSLTPSTLPEEATGLLTPEPSKEGPILTAESETVLPSDSWSSVESTSADTVLLTSKESKVWDLPSTSHVSMWKTSDSVSSPQPGASDTAVPEQNKTTKTGQMDGIPMSMKNEMPISQLLMIIAPSLGFVLFALFVAFLLRGKLMETYCSQKHTRLDYIGDSKNVLNDVQHGREDEDGLFTL | decreases | increases | – | –
2 | TIM-4: N291Q (protein) parent chain: MSKEPLILWLMIEFWWLYLTPVTSETVVTEVLGHRVTLPCLYSSWSHNSNSMCWGKDQCPYSGCKEALIRTDGMRVTSRKSAKYRLQGTIPRGDVSLTILNPSESDSGVYCCRIEVPGWFNDVKINVRLNLQRASTTTHRTATTTTRRTTTTSPTTTRQMTTTPAALPTTVVTTPDLTTGTPLQMTTIAVFTTANTCLSLTPSTLPEEATGLLTPEPSKEGPILTAESETVLPSDSWSSVESTSADTVLLTSKESKVWDLPSTSHVSMWKTSDSVSSPQPGASDTAVPEQNKTTKTGQMDGIPMSMKNEMPISQLLMIIAPSLGFVLFALFVAFLLRGKLMETYCSQKHTRLDYIGDSKNVLNDVQHGREDEDGLFTL | – | – | increases | changes, co-localized with the ER-tracker compared with wild type TIM-4

From paper PMC9008408
